From publication PMC4491196

Biological target: Dnmt3a (ADD domain, ADD3a) ADD domain, 479-610 or 476-611 (UniProt Q9Y6K1)
Experiment: biotin-peptide pull-down, Coomassie
Settings: reference: unmodified H3 peptide; sites S10

- binding against the reference: same
Substance: histone H3 (N-terminal peptides) (from UniProt P68431) H3S10ph peptide
